Laboratory results taken from patent US12194200B2, “Silk fibroin-based microneedles and methods of making the same” (Trustees of Tufts College, priority 2010, dated 2025).

Assay: HRP enzymatic activity detected with chromogenic substrate
Assay type: biochemical
Conditions: after silk processing and collagenase digestion
Experimental: The release kinetics of HRP from silk fibroin microneedles into the collagen hydrogels (N=3) were determined spectroscopically. The collagen hydrogel was selectively digested with collagenase. Subsequently, a colorimetric HRP enzyme activity assay was carried out as described later in the Exemplary Materials and Methods (FIG. 9C). […] Compared to the 2 hour and 8 hour water annealed devices, the untreated silk microneedles released in the same time period about 2.7±0.18 and about 5.6±0.99 times as much HRP, respectively. The beta sheet content in the silk fiborin microneedle samples was determined, e.g., by infrared spectroscopy, with results of ˜14%, ˜18% and ˜21% for the untreated, 2 hr-annealed and 8 hr-annealed silk fibroin microneedle samples, respectively. […]
HRP release model: The silk fibroin microneedles were loaded with 1 mg/ml of HRP (Sigma Aldrich). […] The collagen or gelatin slab measured approximately 2.5 mm in height. […] The needles were pierced through Parafilm (Parafilm M, Pechiney Plastic Packaging) membranes (polymer membrane in FIG. 8A) and subsequently applied to the hydrogel slabs to quantify the HRP release. […] To quantify the total amount of HRP release from the silk fibroin microneedles, a plurality of stacks, each of which included an array of silk fibroin microneedles, a polymer membrane and a collagen hydrogel, were prepared and evaluated at multiple time points. […]

horseradish peroxidase [HRP]
enzymatic activity of HRP: retained activity
